# IntAct's records for PubMed 19037259
# What was measured:
# fig4_yeast FIG4 = fig4_yeast FIG4 (UniProt P42837)
# vac14_yeast VAC14 = vac14_yeast VAC14 (UniProt Q06708)
# Sequence of UniProt Q06708 (Q06708 whole entry): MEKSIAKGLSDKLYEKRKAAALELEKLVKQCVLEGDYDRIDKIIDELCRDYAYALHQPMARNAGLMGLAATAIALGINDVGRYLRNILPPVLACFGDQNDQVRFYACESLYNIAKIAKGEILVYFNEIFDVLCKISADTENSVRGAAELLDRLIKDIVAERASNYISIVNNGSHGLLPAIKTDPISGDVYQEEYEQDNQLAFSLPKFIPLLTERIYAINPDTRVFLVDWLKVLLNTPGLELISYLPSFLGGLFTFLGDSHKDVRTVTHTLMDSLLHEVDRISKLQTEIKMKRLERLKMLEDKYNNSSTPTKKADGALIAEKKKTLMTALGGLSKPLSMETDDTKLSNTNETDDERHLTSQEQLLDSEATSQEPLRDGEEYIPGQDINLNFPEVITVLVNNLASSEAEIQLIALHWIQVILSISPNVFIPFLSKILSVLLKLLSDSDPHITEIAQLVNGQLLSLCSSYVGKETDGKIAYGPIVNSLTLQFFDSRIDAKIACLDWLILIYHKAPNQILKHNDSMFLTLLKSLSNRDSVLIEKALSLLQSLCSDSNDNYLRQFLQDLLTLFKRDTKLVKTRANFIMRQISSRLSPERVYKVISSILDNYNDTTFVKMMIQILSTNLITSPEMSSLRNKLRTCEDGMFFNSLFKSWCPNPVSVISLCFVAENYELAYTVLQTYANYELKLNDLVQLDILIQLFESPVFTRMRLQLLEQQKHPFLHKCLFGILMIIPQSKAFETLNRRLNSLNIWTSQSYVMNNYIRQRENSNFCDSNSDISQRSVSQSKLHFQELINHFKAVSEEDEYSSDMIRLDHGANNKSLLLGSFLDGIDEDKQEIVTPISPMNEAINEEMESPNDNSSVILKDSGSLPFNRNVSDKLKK
# Sequence of UniProt P42837 (P42837 whole entry): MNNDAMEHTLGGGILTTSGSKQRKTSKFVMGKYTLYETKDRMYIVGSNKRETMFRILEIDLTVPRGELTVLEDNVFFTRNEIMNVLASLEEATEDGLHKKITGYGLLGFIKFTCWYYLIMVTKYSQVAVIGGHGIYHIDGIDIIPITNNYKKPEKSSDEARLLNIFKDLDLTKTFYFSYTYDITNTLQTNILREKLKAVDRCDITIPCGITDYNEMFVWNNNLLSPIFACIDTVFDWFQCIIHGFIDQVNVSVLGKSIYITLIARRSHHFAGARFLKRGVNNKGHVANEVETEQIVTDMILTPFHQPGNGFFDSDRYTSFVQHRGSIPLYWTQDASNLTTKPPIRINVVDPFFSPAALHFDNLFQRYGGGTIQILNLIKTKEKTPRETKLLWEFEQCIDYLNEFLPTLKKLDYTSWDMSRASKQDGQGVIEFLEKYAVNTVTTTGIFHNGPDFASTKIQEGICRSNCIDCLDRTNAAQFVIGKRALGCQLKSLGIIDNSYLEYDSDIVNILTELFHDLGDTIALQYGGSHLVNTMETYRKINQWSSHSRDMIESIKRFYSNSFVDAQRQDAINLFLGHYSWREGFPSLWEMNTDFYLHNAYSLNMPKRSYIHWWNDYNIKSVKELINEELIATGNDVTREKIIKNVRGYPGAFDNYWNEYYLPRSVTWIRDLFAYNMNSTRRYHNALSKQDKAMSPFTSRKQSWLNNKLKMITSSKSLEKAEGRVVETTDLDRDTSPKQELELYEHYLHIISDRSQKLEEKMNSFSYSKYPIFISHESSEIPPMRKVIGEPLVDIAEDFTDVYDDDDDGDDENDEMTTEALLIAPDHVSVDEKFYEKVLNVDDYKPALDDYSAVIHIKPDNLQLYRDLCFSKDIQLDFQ
substance,measurement,setting,value
"1-phosphatidylinositol 3-phosphate 5-kinase FAB1 (Saccharomyces cerevisiae), P34756 G864E",effect of a mutation on the interaction,fig4_yeast FIG4,disrupting interaction
same,effect of a mutation on the interaction,vac14_yeast VAC14,disrupting interaction
